Changes are numbered by the printed parent chain. Numbers in names are those of the source.
B1: hu179-06 (antibody, human IgG1, kappa, V domains shown)
VH: EVQLVQSGAEVKKPGSSVKVSCKASGYTFSNYLIEWVRQAPGQGLEWIGVIDPGNGDTNYNENFKGRATLTADKSTSTAYIELSSLRSEDTAVYYCAREDNTGTAFDYWGQGTTVTVSS
VL: DIVMTQSPDSLAVSLGERATINCKASQSVSSDVTWYQQKPGQSPKLLIYYVSNHYTGVPDRFSGSGSGTDFTLTISSLQAEDVAVYYCQQHHRFPLTFGQGTKLEIKR
notes: IgG1-YTE, kappa
B2: hu179-15 (antibody, human IgG1, kappa, V domains shown)
VH: B1 VH with T28A, I81M
VL: B1 VL with D1S
notes: IgG1-YTE, kappa
B3: hu179-03 (antibody, human IgG1, kappa, V domains shown)
VH: B1 VH with I48M, A68V, I81M
VL: B1 VL with S43P
notes: IgG1-YTE, kappa
B4: hu179-20 (antibody, human IgG1, kappa, V domains shown)
VH: B1 VH with Y27G, I48M, N55Q, A68V, L70I, I81M
VL: B1 VL
notes: IgG1-YTE, kappa; also called hu179VH1-N55Q + hu179VL2
B5: hu179-07 (antibody, human IgG1, kappa, V domains shown)
VH: B1 VH
VL: B1 VL with L73F
notes: IgG1-YTE, kappa
B6: hu179-30 (antibody, human IgG1, kappa, V domains shown)
VH: B1 VH
VL: B1 VL with H54D
notes: IgG1-YTE, kappa
B7: hu179-14 (antibody, human IgG1, kappa, V domains shown)
VH: B1 VH with T28A, I81M
VL: B1 VL with L73F
notes: IgG1-YTE, kappa
B8: hu179-27 (antibody, human IgG1, kappa, V domains shown)
VH: B1 VH
VL: B1 VL with S52E
notes: IgG1-YTE, kappa
B9: hu179-32 (antibody, human IgG1, kappa, V domains shown)
VH: B1 VH
VL: B1 VL with Y55E
notes: IgG1-YTE, kappa
B10: hu179-23 (antibody, human IgG1, kappa, V domains shown)
VH: B1 VH with Y27G, I48M, A68V, L70I, I81M
VL: B1 VL with N53D
notes: IgG1-YTE, kappa
B11: hu179-24 (antibody, human IgG1, kappa, V domains shown)
VH: B1 VH with Y27G, I48M, A68V, L70I, I81M
VL: B1 VL with H54Y
notes: IgG1-YTE, kappa
B12: hu179-04 (antibody, human IgG1, kappa, V domains shown)
VH: B1 VH with I48M, A68V, I81M
VL: B1 VL
notes: IgG1-YTE, kappa
B13: hu179-25 (antibody, human IgG1, kappa, V domains shown)
VH: B1 VH
VL: B1 VL with Y50E
notes: IgG1-YTE, kappa
B14: hu179-26 (antibody, human IgG1, kappa, V domains shown)
VH: B1 VH
VL: B1 VL with S52D
notes: IgG1-YTE, kappa
B15: hu179-13 (antibody, human IgG1, kappa, V domains shown)
VH: B1 VH with R38K, R67K, S85R
VL: B1 VL
notes: IgG1-YTE, kappa
B16: hu179-21 (antibody, human IgG1, kappa, V domains shown)
VH: B1 VH with Y27G, I48M, N55V, A68V, L70I, I81M
VL: B1 VL
notes: IgG1-YTE, kappa; also called hu179VH1-N55V + hu179VL2
B17: hu179-31 (antibody, human IgG1, kappa, V domains shown)
VH: B1 VH
VL: B1 VL with H54E
notes: IgG1-YTE, kappa
B18: hu179-01 (antibody, human IgG1, kappa, V domains shown)
VH: B1 VH with Y27G, I48M, A68V, L70I, I81M
VL: B1 VL with S43P
notes: IgG1-YTE, kappa
B19: hu179-05 (antibody, human IgG1, kappa, V domains shown)
VH: B1 VH
VL: B1 VL with S43P
notes: IgG1-YTE, kappa
B20: hu179-29 (antibody, human IgG1, kappa, V domains shown)
VH: B1 VH
VL: B1 VL with N53E
notes: IgG1-YTE, kappa
B21: hu179-22 (antibody, human IgG1, kappa, V domains shown)
VH: B1 VH with Y27G, I48M, G56V, A68V, L70I, I81M
VL: B1 VL
notes: IgG1-YTE, kappa; also called hu179VH1-G56V + hu179VL2
B22: hu179-28 (antibody, human IgG1, kappa, V domains shown)
VH: B1 VH
VL: B1 VL with N53Q
notes: IgG1-YTE, kappa
B23: hu179-12 (antibody, human IgG1, kappa, V domains shown)
VH: B1 VH with R38K, R67K, S85R
VL: B1 VL with S43P
notes: IgG1-YTE, kappa
B24: hu179-02 (antibody, human IgG1, kappa, V domains shown)
VH: B1 VH with Y27G, I48M, A68V, L70I, I81M
VL: B1 VL
notes: IgG1-YTE, kappa
B25: hu199-08 (antibody, human IgG1, kappa, V domains shown)
VH: EVQLVQSGAEVKKPGASVKVSCKASGYTFTTYWMHWVRQAPGQGLEWMGMIDPSDSETTLIQKFKDRVTLTVDKSTSTAYMELSSLRSEDTAVYYCARTLDGYYDYWGQGTTVTVSS
VL: DIQMTQSPSSLSASVGDRVTITCRASENIYSYLAWYQQKPGKAPKLLVYFAKTLAEGVPSRFSGSGSGTDFTLTISSLQPEDFATYYCQHHYGTPWTFGGGTKVEIKR
notes: IgG1-YTE, kappa
B26: hu199-06 (antibody, human IgG1, kappa, V domains shown)
VH: B25 VH with L70M
VL: B25 VL with A43S, K45Q, G66V, D70Q
notes: IgG1-YTE, kappa
B27: hu199-19 (antibody, human IgG1, kappa, V domains shown)
VH: B25 VH with R38K, M48I, R67K, V68A
VL: B25 VL with V48I
notes: IgG1-YTE, kappa
B28: hu199-05 (antibody, human IgG1, kappa, V domains shown)
VH: B25 VH with L70M
VL: B25 VL with G66V
notes: IgG1-YTE, kappa
B29: hu199-03 (antibody, human IgG1, kappa, V domains shown)
VH: B25 VH with L70M
VL: B25 VL with A43S, K45Q, D70Q
notes: IgG1-YTE, kappa
B30: hu199-07 (antibody, human IgG1, kappa, V domains shown)
VH: B25 VH
VL: B25 VL with V48I
notes: IgG1-YTE, kappa
B31: hu199-13 (antibody, human IgG1, kappa, V domains shown)
VH: B25 VH with M48I, V68A
VL: B25 VL with V48I
notes: IgG1-YTE, kappa
B32: hu199-04 (antibody, human IgG1, kappa, V domains shown)
VH: B25 VH with L70M
VL: B25 VL with V48I, G66V
notes: IgG1-YTE, kappa
B33: hu199-14 (antibody, human IgG1, kappa, V domains shown)
VH: B25 VH with M48I, V68A
VL: B25 VL
notes: IgG1-YTE, kappa
B34: hu199-02 (antibody, human IgG1, kappa, V domains shown)
VH: B25 VH with L70M
VL: B25 VL
notes: IgG1-YTE, kappa
B35: hu199-09 (antibody, human IgG1, kappa, V domains shown)
VH: B25 VH
VL: B25 VL with A43S, K45Q, D70Q
notes: IgG1-YTE, kappa
B36: hu199-16 (antibody, human IgG1, kappa, V domains shown)
VH: B25 VH with M48I, V68A
VL: B25 VL with V48I, G66V
notes: IgG1-YTE, kappa
B37: hu199-11 (antibody, human IgG1, kappa, V domains shown)
VH: B25 VH
VL: B25 VL with G66V
notes: IgG1-YTE, kappa
B38: hu199-10 (antibody, human IgG1, kappa, V domains shown)
VH: B25 VH
VL: B25 VL with V48I, G66V
notes: IgG1-YTE, kappa
B39: hu199-15 (antibody, human IgG1, kappa, V domains shown)
VH: B25 VH with M48I, V68A
VL: B25 VL with A43S, K45Q, D70Q
notes: IgG1-YTE, kappa
B40: hu199-20 (antibody, human IgG1, kappa, V domains shown)
VH: B25 VH with R38K, M48I, R67K, V68A
VL: B25 VL
notes: IgG1-YTE, kappa
B41: hu199-17 (antibody, human IgG1, kappa, V domains shown)
VH: B25 VH with M48I, V68A
VL: B25 VL with G66V
notes: IgG1-YTE, kappa
B42: hu199-22 (antibody, human IgG1, kappa, V domains shown)
VH: B25 VH with R38K, M48I, R67K, V68A
VL: B25 VL with V48I, G66V
notes: IgG1-YTE, kappa
B43: hu199-21 (antibody, human IgG1, kappa, V domains shown)
VH: B25 VH with R38K, M48I, R67K, V68A
VL: B25 VL with A43S, K45Q, D70Q
notes: IgG1-YTE, kappa
B44: hu199-12 (antibody, human IgG1, kappa, V domains shown)
VH: B25 VH
VL: B25 VL with A43S, K45Q, G66V, D70Q
notes: IgG1-YTE, kappa
B45: hu199-01 (antibody, human IgG1, kappa, V domains shown)
VH: B25 VH with L70M
VL: B25 VL with V48I
notes: IgG1-YTE, kappa
B46: hu199-18 (antibody, human IgG1, kappa, V domains shown)
VH: B25 VH with M48I, V68A
VL: B25 VL with A43S, K45Q, G66V, D70Q
notes: IgG1-YTE, kappa

The binders below were run against T1, His-tagged human TSLP antigen (huTSLP-his) (human) (assay: ELISA, coated huTSLP-his;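 also: binding of antibodies to plate-bound TSLP read as absorbance at 450 nm after TMB colour development, EC50 derived from binding curves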).
T1 construct: Secreted from HEK293E and purified on nickel; whole entry named; also called Human TSLP-his
Binder B1 has an EC50 of 0.219 nM.
In the case of B2, the EC50 is reported as 0.203 nM.
B3 was tested, and the EC50 was 0.138 nM.
B4 gave an EC50 of 0.708 nM.
In the case of B5, the EC50 is reported as 0.448 nM.
Work on B6 yielded an EC50 of 0.246 nM.
In the case of B7, the EC50 is reported as 0.205 nM.
B8 showed an EC50 of 0.18 nM.
Binder B9 has an EC50 of 0.145 nM.
For B10, the EC50 was 0.997 nM.
Binder B11 has an EC50 of 0.636 nM.
B12 showed an EC50 of 0.189 nM.
With B13 the EC50 was 0.131 nM.
For B14, the EC50 was 0.201 nM.
In the case of B15, the EC50 is reported as 0.201 nM.
B16 showed an EC50 of 0.978 nM.
For B17, the EC50 was 0.201 nM.
Work on B18 yielded an EC50 of 0.125 nM.
B19 gave an EC50 of 0.142 nM.
For B20, the EC50 was 0.204 nM.
B21 showed an EC50 of 0.752 nM.
Work on B22 yielded an EC50 of 0.0906 nM.
Work on B23 yielded an EC50 of 0.144 nM.
With B24 the EC50 was 0.17 nM.

These binders were tested against T2, Fc-tagged human TSLP antigen (huTSLP-Fc) (human, biotin-labeled in the blocking assays) (assay: competition ELISA: blocks TSLP binding to TSLP receptor).
T2 construct: whole entry named; also called recombinant human TSLP-Fc
B25 gave an IC50 of 0.283 nM.
For B26, the IC50 was 0.381 nM.
For B27, the IC50 was 0.658 nM.
In the case of B28, the IC50 is reported as 0.473 nM.
B29 showed an IC50 of 0.208 nM.
Binder B30 has an IC50 of 0.283 nM.
B31 was tested, and the IC50 was 0.239 nM.
B32 showed an IC50 of 0.424 nM.
Work on B33 yielded an IC50 of 0.311 nM.
Work on B34 yielded an IC50 of 0.219 nM.
For B35, the IC50 was 0.273 nM.
In the case of B36, the IC50 is reported as 0.737 nM.
B37 gave an IC50 of 0.365 nM.
Binder B38 has an IC50 of 0.391 nM.
In the case of B39, the IC50 is reported as 0.287 nM.
B40 gave an IC50 of 0.4 nM.
Work on B41 yielded an IC50 of 0.611 nM.
In the case of B42, the IC50 is reported as 0.345 nM.
B43 was tested, and the IC50 was 0.535 nM.
Work on B44 yielded an IC50 of 0.37 nM.
B45 showed an IC50 of 0.191 nM.
For B46, the IC50 was 0.481 nM.

— patent publication US20240016931A1 (JIANGSU HENGRUI PHARMACEUTICALS, published 2024)
